From patent US20240026037A1 (Memorial Sloan Kettering, published 2024)

Columns and labels:
[1] = target: T1, Human GPA33 (recombinant protein, Novoprotein) (human, UniProt Q99795 22-235); experiment: SPR (Biacore), human GPA33 immobilised on the chip; reference row
T1 construct: Bought recombinant protein immobilized on a CM5 chip; also called GPA33 antigen; tumor antigen GPA33
T1 sequence: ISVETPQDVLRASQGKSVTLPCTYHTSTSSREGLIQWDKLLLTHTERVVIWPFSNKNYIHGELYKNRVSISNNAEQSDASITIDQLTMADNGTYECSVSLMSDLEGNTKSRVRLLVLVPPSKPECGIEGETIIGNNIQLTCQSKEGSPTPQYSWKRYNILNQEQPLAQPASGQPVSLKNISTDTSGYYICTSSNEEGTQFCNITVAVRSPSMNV
Method in brief: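 Surface plasmon resonance on a Biacore system with immobilised recombinant human GPA33 (Novoprotein) was used to determine KD by kinetic fitting. The values given are each KD divided by the KD of a reference molecule.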

[2] = target: T1, Human GPA33 (recombinant protein, …); experiment: SPR (Biacore), human GPA33 immobilized on CM5 chip, two-state fit, ka1
Procedure: (§1) SPR analysis. Human GPA33 (Novoprotein, Summit, NJ) was immobilized on CM5 chips. Five concentrations of 2-fold serially diluted huA33 IgG1 or huA33-BsAbs (starting at 20 nM) were flowed over the chip using a Biacore™ T100 system (GE Healthcare, Chicago, IL). Binding kinetics of huA33 were measured at 25° C. and binding kinetics of huA33-BsAbs were measured at both 25° C. and 37° C. The sensorgrams were fitted with two state binding model for both to derive kinetic parameters.

[3] = target: T2, Human GPA33 on GPA33+ colorectal cancer cell lines (Colo 205, LS 174T, SW 1222) (human, UniProt Q99795 22-319); experiment: FACS titration on SW1222 cells, geometric mean MFI [Cont.]
T2 construct: Endogenous GPA33 on human colorectal cancer cell lines; also called surface human GPA33; GPA33+ tumor cell lines
T2 sequence: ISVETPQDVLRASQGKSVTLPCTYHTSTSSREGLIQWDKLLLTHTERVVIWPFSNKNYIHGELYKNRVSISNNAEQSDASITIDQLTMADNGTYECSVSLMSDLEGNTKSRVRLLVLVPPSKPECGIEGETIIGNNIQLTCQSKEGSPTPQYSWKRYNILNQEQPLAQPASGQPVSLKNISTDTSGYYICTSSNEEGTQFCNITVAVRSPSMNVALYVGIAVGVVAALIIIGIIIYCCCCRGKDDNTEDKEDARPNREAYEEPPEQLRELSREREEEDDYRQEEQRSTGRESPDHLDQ

[4] = target: T2, Human GPA33 on GPA33+ colorectal cancer …; experiment: FACS titration on Colo205 cells, geometric mean MFI
[5] = target: T2, Human GPA33 on GPA33+ colorectal cancer …; experiment: FACS titration on LS174T cells, geometric mean MFI [Cont.]
[6] = target: T1, Human GPA33 (recombinant protein, …); experiment: SPR (Biacore), human GPA33 immobilized on CM5 chip, two-state fit, kd1
Method in brief: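 The off-rate (kd1) was measured by surface plasmon resonance on a Biacore T100, with recombinant human GPA33 (Novoprotein) immobilised on a CM5 chip. Antibodies were flowed over at five concentrations, 2-fold serial dilutions starting at 20 nM. The parent IgG1 was run at 25° C and bispecific formats at 25° C and 37° C. Sensorgrams were fitted with a two-state binding model to derive the kinetic parameters.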

[7] = target: T1, Human GPA33 (recombinant protein, …); experiment: SPR (Biacore), human GPA33 immobilized on CM5 chip, two-state fit
Procedure: as §1

B1: BC015 (G3A H1L4) (bispecific antibody, human IgG1, kappa, N297A)
heavy: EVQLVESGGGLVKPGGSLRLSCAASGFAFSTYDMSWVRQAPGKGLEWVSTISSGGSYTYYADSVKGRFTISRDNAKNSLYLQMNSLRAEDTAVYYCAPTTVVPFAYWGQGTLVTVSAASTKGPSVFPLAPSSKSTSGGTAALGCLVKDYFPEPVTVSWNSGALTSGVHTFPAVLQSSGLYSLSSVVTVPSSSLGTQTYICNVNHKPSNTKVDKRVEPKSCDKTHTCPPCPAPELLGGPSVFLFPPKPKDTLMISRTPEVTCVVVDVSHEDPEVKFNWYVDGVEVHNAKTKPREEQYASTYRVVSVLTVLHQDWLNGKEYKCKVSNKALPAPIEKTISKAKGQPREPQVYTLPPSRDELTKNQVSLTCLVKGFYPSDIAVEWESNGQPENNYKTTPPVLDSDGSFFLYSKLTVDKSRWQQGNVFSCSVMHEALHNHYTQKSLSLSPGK
light: DIQMTQSPSSLSASVGDRVTITCKASQNVRTVVAWYQQKPGKAPKTLIYLASNRHTGVPSRFSGSGSGTEFTLTISNLQPEDFATYYCLQHWSYPLTFGSGTKLEVKRTVAAPSVFIFPPSDEQLKSGTASVVCLLNNFYPREAKVQWKVDNALQSGNSQEKSVTEQDSKDSTYSLSSTLTLSKADYEKHKVYACEVTHQGLSSPVTKSFNRGECTSGGGGSGGGGSGGGGSHVQLVESGGGLVQPGGSLRLSCAASGFSLTDYGVHWVRQAPGKGLEWLGVIWSGGGTAYNTALISRFTISRDNSKNTLYLQMNSLRAEDTAVYYCARRGSYPYNYFDAWGCGTLVTVSSGGGGSGGGGSGGGGSGGGGSGGGGSGGGGSQAVVTQEPSLTVSPGGTVTLTCGSSTGAVTASNYANWVQQKPGQCPRGLIGGHNNRPPGVPARFSGSLLGGKAALTLLGAQPEDEAEYYCALWYSDHWVIGGGTKLTVLG
notes: GPA33xDOTA IgG-[L]-scFv with human IgG1 constant region carrying N297A and K322A; The anti-DOTA scFv is fused to the C-terminus of the light chain; also called BC177; GPA33 BsAb-IgG (BC177)
Fold change of KD (relative to BC015, lower is better) [1]: 1 | kon [2]: 4.36e+06 M⁻¹ s⁻¹ | EC50 [3]: 0.71 nM | EC50 [4]: 1.04 nM | EC50 [5]: 0.39 nM | koff [6]: 0.00141 s⁻¹ | Kd [7]: 0.118 nM | ka2 [7]: 0.00307 s⁻¹ | kd2 [7]: 0.00177 s⁻¹
